Assays:
Experiment in all cases: FCS competition against 2 nM Alexa488-PIVKAII (13-27) premixed with 10 nM mAb 3C10
[1] = target: T1, Gla domain Factor IX sequence 11 peptide
T1 construct: Homologous series peptide; also called PIVKAII Gla domain (13-27) analog, Factor IX
T1 peptide: LERECMEEKCSFEEA
Method: (§1) FCS measurements were performed on each sample after overnight incubation.

[2] = target: T2, Gla domain Protein Z sequence 16 peptide
T2 construct: Homologous series peptide; also called PIVKAII Gla domain (13-27) analog, Protein Z
T2 peptide: LEKECYEEICVYEEA
Method: as §1

[3] = target: T3, Gla domain Protein S sequence 15 peptide
T3 construct: Homologous series peptide; also called PIVKAII Gla domain (13-27) analog, Protein S
T3 peptide: LERECIEELCNKEEA
Method: as §1

[4] = target: T4, Gla domain Protein C sequence 14 peptide
T4 construct: Homologous series peptide; also called PIVKAII Gla domain (13-27) analog, Protein C
T4 peptide: LERECIEEICDFEEA
Method: as §1

[5] = target: T5, Gla domain Factor VII sequence 13 peptide
T5 construct: Homologous series peptide; also called PIVKAII Gla domain (13-27) analog, Factor VII
T5 peptide: LERECKEEQCSFEEA
Method: as §1

[6] = target: T6, Gla domain Factor X sequence 12 peptide
T6 construct: Homologous series peptide; also called PIVKAII Gla domain (13-27) analog, Factor X
T6 peptide: LERECMEETCSYEEA
Method: as §1

Measured: binding result

B1: Anti-PIVKA-II monoclonal antibody 3C10 (antibody, V domains shown)
VH: EVQLVESGGDLVKPGGSLKLSCAASGFTFSSYGMSWVRQTPDKRLEWVATISRGGSSTYYPDSVKGRFTISRDNAKNNLYLQMSSLKSEDTAMYYCASLNYGNFFDYWGQGTTLTVSS
VL: DVVMTQTPLSLPVSLGDQASISCRSSQSLVHSNGNTYLHWYLQKPGQSPKLLIYKVSNRFSGVPDRFSGSGSGTDFTLKISRVEAEDLGVYFCSQNRHVPPTFGGGTKLEIKR
notes: Mouse hybridoma antibody from a GANP transgenic C57BL/6 mouse; For the Kd measurement the antibody carried Black Hole Quencher (I.R. 2.3); also called mAb 3C10; clone 3C10
no binding: all assays above

— patent publication US20130217145A1 (published 2013)
